Results on two proteins are retold here after article PMC8376246, “Analysis of the mechanosensor channel functionality of TACAN” (eLife, 2021).

The series concerns the molecule itself. The experiment in a line: cryo-EM structure; single-particle cryo-EM; purified protein at 6–7 mg/mL in digitonin, mixed with 2.9 mM FFC8; refined with C2 symmetry.

B1: Mus musculus full-length TMEM120A (TACAN, residues 1–343), wild type (natural protein, UniProt Q8C1E7 1-343, looked up)
chain: MQSPPPDPLGDCLRNWEDLQQDFQGIQETHRLYRLKLEELTKLQANCTNSITRQKKRLQELALVLKKCRPSLPSESMEAAQELENQMKERQGLFFDMEAYLPKKNGLYLSLVLGNVNVTLLSKQAKFAYKDEYEKFKLYLTIILIVISFTCRFLLNSRVTDAAFNFLLVWYYCTLTIRESILINNGSRIKGWWVFHHYVSTFLSGVMLTWPDGLMYQKFRNQFLSFSMYQSFVQFLQYYYQSGCLYRLRALGERHTMDLTVEGFQSWMWRGLTFLLPFLFFGHFWQLFNALTLFNLARDPECKEWQVLMCGFPFLLLFLGNFFTTLRVVHQKFHSQQHGNKKD
notes: TMEM120A (TACAN), Mus musculus, full length, residues 1-343; the model of the structure holds residues 9-72, 76-250 and 262-335; A PreScission protease site lies between TACAN and the C-terminal eGFP; residues of the cut site probably stay on the C-terminus (surmised; expected monomer mass printed as 41,770 Da); Synthetic gene (GeneWiz); also called TACAN^WT; M. musculus TACAN; source: HEK293S …
B1: the stoichiometry N – broadly, a count of units in the complex or per binding partner – was 2.

B2: Mus musculus TACAN (TMEM120A) His196Ala, His197Ala mutant (natural protein, UniProt Q8C1E7 1-343, looked up)
chain: MQSPPPDPLGDCLRNWEDLQQDFQGIQETHRLYRLKLEELTKLQANCTNSITRQKKRLQELALVLKKCRPSLPSESMEAAQELENQMKERQGLFFDMEAYLPKKNGLYLSLVLGNVNVTLLSKQAKFAYKDEYEKFKLYLTIILIVISFTCRFLLNSRVTDAAFNFLLVWYYCTLTIRESILINNGSRIKGWWVFAAYVSTFLSGVMLTWPDGLMYQKFRNQFLSFSMYQSFVQFLQYYYQSGCLYRLRALGERHTMDLTVEGFQSWMWRGLTFLLPFLFFGHFWQLFNALTLFNLARDPECKEWQVLMCGFPFLLLFLGNFFTTLRVVHQKFHSQQHGNKKD
notes: TMEM120A (TACAN), Mus musculus, full length, residues 1-343, with H196A and H197A; the model of the structure holds residues 9-72, 76-250 and 262-335; Same construct as m1 with the two mutations; co-purified with coenzyme A (small molecule); Expected monomer mass printed as 41,637 Da; also called TACAN^(H196A H197A); His196Ala His197Ala mutant TACAN; source: HEK293S GnTI- cells, BacMam …
On to B2, for which the binding result is “binds”.
